In article PMC3219680 (2011):

T1: Mouse Cerberus 1 homologue (mCer1) recombinant protein (mouse, UniProt O55233 18-272)
T1 chain: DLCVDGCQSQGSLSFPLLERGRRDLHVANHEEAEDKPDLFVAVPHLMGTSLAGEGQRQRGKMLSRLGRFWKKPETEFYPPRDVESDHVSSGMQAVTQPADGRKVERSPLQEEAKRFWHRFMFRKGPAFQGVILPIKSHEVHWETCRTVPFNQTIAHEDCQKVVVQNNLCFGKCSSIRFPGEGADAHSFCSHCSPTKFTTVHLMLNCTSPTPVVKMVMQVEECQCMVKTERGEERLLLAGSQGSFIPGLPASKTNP

B1: hBMP2 (ligand)
chain: QAKHKQRKRLKSSCKRHPLYVDFSDVGWNDWIVAPPGYHAFYCHGECPFPLADHLNSTNHAIVQTLVNSVNSKIPKACCVPTELSAISMLYLDENEKVVLKNYQDMVVEGCGCR
B2: hBMP4 (ligand)
chain: SPKHHSQRARKKNKNCRRHSLYVDFSDVGWNDWIVAPPGYQAFYCHGDCPFPLADHLNSTNHAIVQTLVNSVNSSIPKACCVPTELSAISMLYLDEYDKVVLKNYQEMVVEGCGCR

Target: T1, Mouse Cerberus 1 homologue (mCer1) …
Assay: SPR

Binder | Kd
B1 | 3.38 nM
B2 | 23.4 nM
